From patent US20190162720A1 come the findings set out here.

The target in experiment [1] is C-Reactive protein (CRP, R&D Systems, Inc., 1707-CR-200, Mouse myeloma cell line) (UniProt P02741). As to the kind of experiment: SPR Biacore T200; CRP 1.0 µg/mL fed over antibody held through protein G (Example 6). (In general: SPR reads the build-up and loss of mass on a sensor chip optically.)
Experiment [2] has the same target. As to the kind of experiment: SPR Biacore T200; CRP 1.0 µg/mL fed over antibody held through protein A/G (6) (Example 7).
Experiment [3] has the same target. As to the kind of experiment: SPR Biacore T200; CRP 1.0 µg/mL fed over antibody held through protein A/G (8) (Example 8).
Experiment [4] shares this target. As to the kind of experiment: SPR Biacore T200; CRP 1.0 µg/mL fed over antibody held through protein A/G (6) (Example 9).
Experiment [5] has the same target. As to the kind of experiment: SPR Biacore T200; CRP 1.0 µg/mL fed over antibody held through protein A/G (6) (Example 10).
For experiment [6] the target is unchanged. As to the kind of experiment: SPR Biacore T200; CRP 1.0 µg/mL fed over antibody held through protein A/G (8) (Example 11).
Experiment [7] has the same target. As to the kind of experiment: SPR Biacore T200; CRP 1.0 µg/mL fed over antibody held through protein A/G (6) (Example 12).
For experiment [8] the target is unchanged. As to the kind of experiment: SPR Biacore T200; CRP 1.0 µg/mL fed over antibody held through protein A/G (6) (Example 13).
Experiment [9] shares this target. As to the kind of experiment: SPR Biacore T200; CRP 1.0 µg/mL fed over antibody held through protein A/G (6) (Example 14).
Experiment [10] has the same target. As to the kind of experiment: SPR Biacore T200; CRP 1.0 µg/mL fed over antibody held through protein A/G (6) (Example 15).
The target is the same in experiment [11]. As to the kind of experiment: SPR Biacore T200; CRP 1.0 µg/mL fed over antibody held through protein A/G (6) (Example 16).
Experiment [12] shares this target. As to the kind of experiment: SPR Biacore T200; CRP 1.0 µg/mL fed over antibody held through protein A/G (6) (Example 17).
Experiment [13] shares this target. As to the kind of experiment: SPR Biacore T200; CRP 1.0 µg/mL fed over antibody coupled covalently (EDC/s-NHS) to the SAM; corrected with anti-IL6 reference interface (Comparative Example 2).
The target of experiment [14] is anti-CRP antibody (R&D Systems, Inc., Human C-Reactive protein Antibody, Monoclonal Mouse IgG2B, MAB17071-500). As to the kind of experiment: SPR Biacore T200; anti-CRP antibody 100 µg/mL fed over protein A/G (8) held on the first antibody (Example 8).
For experiment [15] the target is unchanged. As to the kind of experiment: SPR Biacore T200; anti-CRP antibody 100 µg/mL fed over protein A/G (8) held on anti-mPEG antibody (Example 11).
For experiment [16], the target named is anti-mPEG monoclonal antibody (Abcam plc., ab51257, Mouse monoclonal, Anti-Polyethylene glycol antibody [PEG-B-47]). As to the kind of experiment: SPR Biacore T200; protein A/G (eight domains) 119 µg/mL fed over anti-mPEG antibody on the mPEG chip (Example 11).
Experiment [17] concerns the target anti-biotin monoclonal antibody (Abcam plc., ab36406, Mouse monoclonal). As to the kind of experiment: SPR Biacore T200; protein A/G (eight domains) 30 µg/mL fed over anti-biotin monoclonal antibody on the chip (Example 8).
The target is the same in experiment [18]. As to the kind of experiment: SPR Biacore T200; protein G 40 µg/mL fed over anti-biotin monoclonal antibody on the chip (Example 6).
Experiment [19] deals with anti-CRP antibody (R&D Systems, Inc., Human C-Reactive protein Antibody, Monoclonal Mouse IgG2B, MAB17071-500). As to the kind of experiment: SPR Biacore T200; anti-CRP antibody 100 µg/mL fed over protein G held on the first antibody (Example 6).

Sequence of UniProt P02741 (P02741 19-224 limits assumed): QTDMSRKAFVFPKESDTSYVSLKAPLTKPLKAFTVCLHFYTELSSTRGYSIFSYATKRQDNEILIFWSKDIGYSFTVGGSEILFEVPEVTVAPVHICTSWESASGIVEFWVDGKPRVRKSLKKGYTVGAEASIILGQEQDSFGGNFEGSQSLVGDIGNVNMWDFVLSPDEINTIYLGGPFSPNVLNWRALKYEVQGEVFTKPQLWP

Consider “anti-CRP antibody (R&D Systems, Inc., Human C-Reactive protein Antibody, Monoclonal Mouse IgG2B, MAB17071-500)”, for which the Amount of antigen bound in experiment [1] stood at 513 RU; in experiment [2], 422 RU; in experiment [3] it was 745 RU; in [4], 408 RU; in [5], 663 RU; in experiment [6], 536 RU. In addition, the Amount of antigen bound in experiment [7] amounted to 508 RU; in [8], 560 RU; in experiment [9] it was 630 RU; in experiment [10] it was 519 RU; in [11], 514 RU; in experiment [12] it was 481 RU. The substance further showed an Amount of antigen bound in experiment [13] of 284 RU.

Regarding “protein A/G (BioVision Incorporated, 6502, Recombinant Protein A/G from E. coli, eight domains)”, the Amount of second antibody immobilized came to 3460 RU in [14] and 3210 RU in experiment [15]. Besides, the results for the amount of the protein A/G immobilized in experiment [16] and in [17] were 820 RU and 868 RU, respectively.

On to “protein G (BioVision Incorporated, 6501, recombinant protein G, three domains)”, for which the amount of the protein G immobilized in experiment [18] is 841 RU. In addition, the Amount of second antibody immobilized in [19] came out at 2010 RU.
